The values below come from US11278600B2, “Human alpha-galactosidase variants” (Codexis, Inc., priority 2014, dated 2022).

Type in all cases: biochemical
Data set [1] in a line: HTP-analysis of yeast culture supernatants, no challenge (MUGal hydrolysis). Conditions: activity of the variant/activity of Rd4BB (SEQ ID NO: 15). The procedure, abridged: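 GLA variants were expressed in INVSc1 yeast grown in SD-Ura broth with glucose at 30° C., and culture supernatants were collected after 66-84 h. Supernatant was mixed with McIlvaine buffer pH 4.8 and MUGal (2 mM stock) in 50 mM citrate, 200 mM KCl, pH 4.6, incubated at 37° C. for 30-180 minutes, then quenched with sodium carbonate.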

Data set [2] can be described thus: HTP-analysis of supernatants pretreated with acid (MUGal hydrolysis). Conditions: activity of the variant/activity of Rd4BB (SEQ ID NO: 15); challenge at pH 3.7. The procedure, abridged: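 Yeast INVSc1 supernatant, GLA variants; acid challenge: McIlvaine pH 3.3-4.3, 37° C., 1-3 h. Assay: MUGal in McIlvaine pH 4.8 plus citrate pH 4.3, 37° C., 30-180 min, Na2CO3 stop, Ex 355/Em 448 nm.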

Data set [3] in a line: HTP-analysis of supernatants pretreated with base (MUGal hydrolysis). Conditions: activity of the variant/activity of Rd4BB (SEQ ID NO: 15); challenge at pH 9.65. The gist of the method: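 GLA variants were secreted by transformed INVSc1 yeast grown 66-84 h at 30° C. Supernatants were exposed to neutral-to-basic buffers (pH 7.0-9.7) at 37° C for 1-18 h, then assayed with MUGal in acidic citrate/McIlvaine buffer, with fluorescence read after quenching.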

B1: 384 (protein)
chain: LDNGLARTPTMGWLHWERFMCNLDCQEEPDSCISEKLFMEMAERMVSEGWKDAGYEYLCIDDCWMAPQRDSEGRLQADPQRFPHGIRQLANVVHSKGLKLGIYADVGNKTCAGFPGSFGYYDIDAQTFADWGVDLLKFDGCYCDSLENLADGYKHMSLALNRTGRSIVYSCEWPLYMWPFQKPNYTEIRQYCNHWRNFADIDDSWKSIKSILDWTSRNQERIVDVAGPGGWNDPDMLVIGNFGLSWDQQVTQMALWAIMAAPLFMSNDLRHISPQAKALLQDKDVIAINQDPLGKQGYQLRKGDNFEVWERPLSGDAWAVAIINRQEIGGPRSYTIPVASLGKGVACNPACFITQLLPVKRQLGFYNWTSRLKSHINPTGTVLLQLENTMQMSLKDLL
modifications: Synthetic Polypeptide sequence of Variant No. 384 of mature Human GLA
Take B1: the “Relative Activity of GLA Variants After No Challenge (NC)” value in data set [1] is on record as “+ (0.5 to 1.5 relative activity over Rd4BB (SEQ ID NO: 15))”. The “Relative Activity of GLA Variants After Challenge at pH 3.7” value (“Relative Activity … at pH 3.7” for short) in data set [2] is “+ (0.5 to 1.5 relative activity over Rd4BB (SEQ ID NO: 15))”. For the same molecule, the “Relative Activity of GLA Variants After Challenge at pH 9.65” value (shortened to “Relative Activity … at pH 9.65”) in data set [3] is “− (<0.5 relative activity over Rd4BB (SEQ ID NO: 15))”.

B2: 360 (protein)
chain: LDNGLARTPTMGWLHWERFMCNLDCQEEPDSCISEKLFMEMAEEMVSEGWKDAGYEYLCIDDCWMAPQRDSEGRLQADPQRFPHGIRQLANYVHSKGLKLGIYADVGNKTCAGFPGSFGYYDIDAQTFADWGVDLLKFDGCYCDSLENLADGYKHMSLALNRTGRSIVYSCEWPLYMWPFQKPNYTEIRQYCNHWRNFADIDDSWASIKSILDWTSRNQERIVDVAGPGGWNDPDMLVIGNFGLSWDQQVTQMALWAIMAAPLFMSNDLRHISPQAKALLQDKDVIAINQDPLGKQGYQLRKGDNFEVWERPLSGDAWAVAIINRQEIGGPRSYTIPVASLGKGVACNPACFITQLLPVKRQLGFYNWTSRLKSHINPTGTVLLQLENTMQMSLKDLL
modifications: Synthetic Polypeptide sequence of Variant No. 360 of mature Human GLA
Consider B2, for which the “Relative Activity of GLA Variants After No Challenge (NC)” value in data set [1] is reported as “+ (0.5 to 1.5 relative activity over Rd4BB (SEQ ID NO: 15))”. In data set [2], the “Relative Activity … at pH 3.7” value is reported as “+ (0.5 to 1.5 relative activity over Rd4BB (SEQ ID NO: 15))”. Moreover, in data set [3], the “Relative Activity … at pH 9.65” value is reported as “+ (0.5 to 1.5 relative activity over Rd4BB (SEQ ID NO: 15))”.

B3: 387 (protein)
chain: LDNGLARTPTMGWLHWERFMCNLDCQEEPDSCISEKLFMEMAERMVSEGWKDAGYEYLCIDDCWMAPQRDSEGRLQADPQRFPHGIRQLANYTHSKGLKLGIYADVGNKTCAGFPGSFGYYDIDAQTFADWGVDLLKFDGCYCDSLENLADGYKHMSLALNRTGRSIVYSCEWPLYMWPFQKPNYTEIRQYCNHWRNFADIDDSWKSIKSILDWTSRNQERIVDVAGPGGWNDPDMLVIGNFGLSWDQQVTQMALWAIMAAPLFMSNDLRHISPQAKALLQDKDVIAINQDPLGKQGYQLRKGDNFEVWERPLSGDAWAVAIINRQEIGGPRSYTIPVASLGKGVACNPACFITQLLPVKRQLGFYNWTSRLKSHINPTGTVLLQLENTMQMSLKDLL
modifications: Synthetic Polypeptide sequence of Variant No. 387 of mature Human GLA
On to B3, for which the “Relative Activity of GLA Variants After No Challenge (NC)” value in data set [1] is “+ (0.5 to 1.5 relative activity over Rd4BB (SEQ ID NO: 15))”. Besides, in data set [2], the “Relative Activity … at pH 3.7” value is “+ (0.5 to 1.5 relative activity over Rd4BB (SEQ ID NO: 15))”. Besides, the “Relative Activity … at pH 9.65” value in data set [3] is listed as “− (<0.5 relative activity over Rd4BB (SEQ ID NO: 15))”.

B4: 389 (protein)
chain: LDNGLARTPTMGWLHWERFMCNLDCQEEPDSCISEKLFMEMAERMVSEGWKDAGYEYLCIDDCWMAPQRDSEGRLQADPQRFPHGIRQLANYSHSKGLKLGIYADVGNKTCAGFPGSFGYYDIDAQTFADWGVDLLKFDGCYCDSLENLADGYKHMSLALNRTGRSIVYSCEWPLYMWPFQKPNYTEIRQYCNHWRNFADIDDSWKSIKSILDWTSRNQERIVDVAGPGGWNDPDMLVIGNFGLSWDQQVTQMALWAIMAAPLFMSNDLRHISPQAKALLQDKDVIAINQDPLGKQGYQLRKGDNFEVWERPLSGDAWAVAIINRQEIGGPRSYTIPVASLGKGVACNPACFITQLLPVKRQLGFYNWTSRLKSHINPTGTVLLQLENTMQMSLKDLL
modifications: Synthetic Polypeptide sequence of Variant No. 389 of mature Human GLA
Take B4: in data set [1], the “Relative Activity of GLA Variants After No Challenge (NC)” value is reported as “+ (0.5 to 1.5 relative activity over Rd4BB (SEQ ID NO: 15))”. The “Relative Activity … at pH 3.7” value in data set [2] is reported as “+ (0.5 to 1.5 relative activity over Rd4BB (SEQ ID NO: 15))”. Besides, the “Relative Activity … at pH 9.65” value in data set [3] was “− (<0.5 relative activity over Rd4BB (SEQ ID NO: 15))”.

B5: 388 (protein)
chain: LDNGLARTPTMGWLHWERFMCNLDCQEEPDSCISEKLFMEMAERMVSEGWKDAGYEYLCIDDCWMAPQRDSEGRLQADPQRFPHGIRQLANYLHSKGLKLGIYADVGNKTCAGFPGSFGYYDIDAQTFADWGVDLLKFDGCYCDSLENLADGYKHMSLALNRTGRSIVYSCEWPLYMWPFQKPNYTEIRQYCNHWRNFADIDDSWKSIKSILDWTSRNQERIVDVAGPGGWNDPDMLVIGNFGLSWDQQVTQMALWAIMAAPLFMSNDLRHISPQAKALLQDKDVIAINQDPLGKQGYQLRKGDNFEVWERPLSGDAWAVAIINRQEIGGPRSYTIPVASLGKGVACNPACFITQLLPVKRQLGFYNWTSRLKSHINPTGTVLLQLENTMQMSLKDLL
modifications: Synthetic Polypeptide sequence of Variant No. 388 of mature Human GLA
For the molecule B5, the “Relative Activity of GLA Variants After No Challenge (NC)” value in data set [1] is “+ (0.5 to 1.5 relative activity over Rd4BB (SEQ ID NO: 15))”. In addition, in data set [2], the “Relative Activity … at pH 3.7” value is recorded as “− (<0.5 relative activity over Rd4BB (SEQ ID NO: 15))”. Also, the “Relative Activity … at pH 9.65” value in data set [3] was “+ (0.5 to 1.5 relative activity over Rd4BB (SEQ ID NO: 15))”.

B6: 385 (protein)
chain: LDNGLARTPTMGWLHWERFMCNLDCQEEPDSCISEKLFMEMAERMVSEGWKDAGYEYLCIDDCWMAPQRDSEGRLQADPQRFPHGIRQLANAVHSKGLKLGIYADVGNKTCAGFPGSFGYYDIDAQTFADWGVDLLKFDGCYCDSLENLADGYKHMSLALNRTGRSIVYSCEWPLYMWPFQKPNYTEIRQYCNHWRNFADIDDSWKSIKSILDWTSRNQERIVDVAGPGGWNDPDMLVIGNFGLSWDQQVTQMALWAIMAAPLFMSNDLRHISPQAKALLQDKDVIAINQDPLGKQGYQLRKGDNFEVWERPLSGDAWAVAIINRQEIGGPRSYTIPVASLGKGVACNPACFITQLLPVKRQLGFYNWTSRLKSHINPTGTVLLQLENTMQMSLKDLL
modifications: Synthetic Polypeptide sequence of Variant No. 385 of mature Human GLA
With B6, in data set [1], the “Relative Activity of GLA Variants After No Challenge (NC)” value is reported as “+ (0.5 to 1.5 relative activity over Rd4BB (SEQ ID NO: 15))”. Moreover, the “Relative Activity … at pH 3.7” value in data set [2] is given as “+ (0.5 to 1.5 relative activity over Rd4BB (SEQ ID NO: 15))”. Also, the “Relative Activity … at pH 9.65” value in data set [3] is “− (<0.5 relative activity over Rd4BB (SEQ ID NO: 15))”.

B7: 386 (protein)
chain: LDNGLARTPTMGWLHWERFMCNLDCQEEPDSCISEKLFMEMAERMVSEGWKDAGYEYLCIDDCWMAPQRDSEGRLQADPQRFPHGIRQLANYVRSKGLKLGIYADVGNKTCAGFPGSFGYYDIDAQTFADWGVDLLKFDGCYCDSLENLADGYKHMSLALNRTGRSIVYSCEWPLYMWPFQKPNYTEIRQYCNHWRNFADIDDSWKSIKSILDWTSRNQERIVDVAGPGGWNDPDMLVIGNFGLSWDQQVTQMALWAIMAAPLFMSNDLRHISPQAKALLQDKDVIAINQDPLGKQGYQLRKGDNFEVWERPLSGDAWAVAIINRQEIGGPRSYTIPVASLGKGVACNPACFITQLLPVKRQLGFYNWTSRLKSHINPTGTVLLQLENTMQMSLKDLL
modifications: Synthetic Polypeptide sequence of Variant No. 386 of mature Human GLA
With B7, the “Relative Activity of GLA Variants After No Challenge (NC)” value in data set [1] is recorded as “− (<0.5 relative activity over Rd4BB (SEQ ID NO: 15))”. For the same molecule, the “Relative Activity … at pH 3.7” value in data set [2] is reported as “+ (0.5 to 1.5 relative activity over Rd4BB (SEQ ID NO: 15))”. For the same molecule, the “Relative Activity … at pH 9.65” value in data set [3] is listed as “− (<0.5 relative activity over Rd4BB (SEQ ID NO: 15))”.

B8: 390 (protein)
chain: LDNGLARTPTMGWLHWERFMCNLDCQEEPDSCISEKLFMEMAERMVSEGWKDAGYEYLCIDDCWMAPQRDSEGRLQADPQRFPHGIRQLANYQHSKGLKLGIYADVGNKTCAGFPGSFGYYDIDAQTFADWGVDLLKFDGCYCDSLENLADGYKHMSLALNRTGRSIVYSCEWPLYMWPFQKPNYTEIRQYCNHWRNFADIDDSWKSIKSILDWTSRNQERIVDVAGPGGWNDPDMLVIGNFGLSWDQQVTQMALWAIMAAPLFMSNDLRHISPQAKALLQDKDVIAINQDPLGKQGYQLRKGDNFEVWERPLSGDAWAVAIINRQEIGGPRSYTIPVASLGKGVACNPACFITQLLPVKRQLGFYNWTSRLKSHINPTGTVLLQLENTMQMSLKDLL
modifications: Synthetic Polypeptide sequence of Variant No. 390 of mature Human GLA
Consider B8, for which, in data set [1], the “Relative Activity of GLA Variants After No Challenge (NC)” value is recorded as “+ (0.5 to 1.5 relative activity over Rd4BB (SEQ ID NO: 15))”. In addition, the “Relative Activity … at pH 3.7” value in data set [2] is recorded as “+ (0.5 to 1.5 relative activity over Rd4BB (SEQ ID NO: 15))”. Further, the “Relative Activity … at pH 9.65” value in data set [3] is “− (<0.5 relative activity over Rd4BB (SEQ ID NO: 15))”.
